The source of these data is patent publication US20200317768A1 (published 2020).

Assay [1] has as its target T1, cynomolgus monkey FcγRIIb extracellular domain with C-terminal His-tag (cynomolgus monkey).
T1 construct: Expressed in FreeStyle 293 cells and purified; also called cyno FcγRIIb; cynoFcγRIIb; not shown: C-terminal His-tag
T1 chain: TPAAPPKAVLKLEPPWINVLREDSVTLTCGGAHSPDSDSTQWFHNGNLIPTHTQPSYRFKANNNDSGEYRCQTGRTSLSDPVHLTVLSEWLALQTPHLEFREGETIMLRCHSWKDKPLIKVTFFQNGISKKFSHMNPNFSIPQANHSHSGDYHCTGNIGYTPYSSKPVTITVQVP
Description: SPR (Biacore); KD of SG1 divided by KD of the variant for this FcgR. (SPR reads the build-up and loss of mass on a sensor chip optically.)

In assay [2] the target is T2, cynomolgus monkey FcγRIIa2 extracellular domain with C-terminal His-tag (cynomolgus monkey).
T2 construct: Expressed in FreeStyle 293 cells and purified; also called cyno FcγRIIa2; cynoFcgRIIa2; not shown: C-terminal His-tag
T2 chain: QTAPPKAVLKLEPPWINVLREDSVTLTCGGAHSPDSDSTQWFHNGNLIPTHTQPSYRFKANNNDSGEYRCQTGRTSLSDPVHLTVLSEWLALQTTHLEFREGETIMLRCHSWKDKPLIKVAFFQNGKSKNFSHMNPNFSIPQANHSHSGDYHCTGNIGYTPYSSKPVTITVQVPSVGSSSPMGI
Description: SPR (Biacore), antibody captured on chip, FcgR extracellular domain as analyte, 25 C.

Assay [3] concerns the target T3, human FcγRIIb extracellular domain with C-terminal His-tag (human, UniProt P31994 43-217).
T3 construct: Expressed in FreeStyle 293 cells and purified; also called humanFcgRIIb; not shown: C-terminal His-tag
T3 sequence: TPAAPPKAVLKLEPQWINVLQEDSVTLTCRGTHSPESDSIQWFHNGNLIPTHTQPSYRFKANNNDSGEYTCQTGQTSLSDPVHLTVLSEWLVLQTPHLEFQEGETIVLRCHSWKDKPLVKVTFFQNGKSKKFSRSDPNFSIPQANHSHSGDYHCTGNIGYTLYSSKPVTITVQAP
The description is as above.

Assay [4] deals with T4, human FcγRIIaR extracellular domain with C-terminal His-tag (human, UniProt P12318 34-217).
T4 construct: Expressed in FreeStyle 293 cells and purified; also called human FcγRIIa (type R); FcgRIIaR; not shown: C-terminal His-tag
T4 chain: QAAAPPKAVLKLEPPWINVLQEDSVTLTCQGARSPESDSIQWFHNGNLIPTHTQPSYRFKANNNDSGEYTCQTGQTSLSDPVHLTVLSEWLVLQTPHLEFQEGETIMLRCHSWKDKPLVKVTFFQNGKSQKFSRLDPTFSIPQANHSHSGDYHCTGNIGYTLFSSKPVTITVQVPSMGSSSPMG
Described as above.

For assay [5], the target named is T5, human FcγRIIIaV extracellular domain with C-terminal His-tag (human, UniProt P08637 17-208).
T5 construct: Expressed in FreeStyle 293 cells and purified; also called FcgRIIIaV; not shown: C-terminal His-tag
Described as above.

The target in assay [6] is T1, cynomolgus monkey FcγRIIb extracellular …. Described as above.
For assay [7], the target named is T6, human FcγRIIaH extracellular domain with C-terminal His-tag (human, UniProt P12318 34-217).
T6 construct: Expressed in FreeStyle 293 cells and purified; also called human FcγRIIa (type H); FcgRIIaH; not shown: C-terminal His-tag
T6 sequence: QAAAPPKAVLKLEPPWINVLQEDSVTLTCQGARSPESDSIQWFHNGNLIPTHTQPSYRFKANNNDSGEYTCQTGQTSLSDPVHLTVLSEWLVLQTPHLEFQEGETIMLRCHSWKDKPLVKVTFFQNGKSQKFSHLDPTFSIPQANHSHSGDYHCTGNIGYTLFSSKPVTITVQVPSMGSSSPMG
The description is as above.

The target in assay [8] is T7, cynomolgus monkey FcγRIIa1 extracellular domain with C-terminal His-tag (cynomolgus monkey).
T7 construct: Expressed in FreeStyle 293 cells and purified; also called cyno FcγRIIa1; cynoFcgRIIa1; not shown: C-terminal His-tag
T7 chain: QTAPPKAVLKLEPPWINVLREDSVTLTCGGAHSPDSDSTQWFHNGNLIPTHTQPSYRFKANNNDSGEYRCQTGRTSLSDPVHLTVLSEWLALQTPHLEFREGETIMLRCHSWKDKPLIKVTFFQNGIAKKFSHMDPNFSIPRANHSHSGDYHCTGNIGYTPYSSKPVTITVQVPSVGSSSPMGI
The assay is described as above.

Assay [9] has as its target T8, cynomolgus monkey FcγRIIa3 extracellular domain with C-terminal His-tag (cynomolgus monkey).
T8 construct: Expressed in FreeStyle 293 cells and purified; also called cyno FcγRIIa3; cynoFcgRIIa3; not shown: C-terminal His-tag
T8 chain: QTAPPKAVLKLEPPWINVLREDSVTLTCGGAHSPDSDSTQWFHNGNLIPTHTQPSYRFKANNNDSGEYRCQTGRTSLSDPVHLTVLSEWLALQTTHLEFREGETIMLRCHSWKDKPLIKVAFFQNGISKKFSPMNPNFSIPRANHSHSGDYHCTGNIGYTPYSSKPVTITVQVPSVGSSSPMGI
Described as above.
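Throughout, for KD fold (SG1 = 1): relative to parent M103205H795-SG1 carrying the SG1 human heavy chain constant region.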

T5 sequence (P08637 17-208 F176V): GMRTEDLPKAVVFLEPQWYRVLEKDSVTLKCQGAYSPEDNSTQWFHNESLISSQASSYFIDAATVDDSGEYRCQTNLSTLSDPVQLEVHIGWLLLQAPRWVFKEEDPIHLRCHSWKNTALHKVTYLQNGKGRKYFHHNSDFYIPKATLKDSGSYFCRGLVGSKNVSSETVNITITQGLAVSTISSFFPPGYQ

B1: M103205H795-MY176 / M103202L889-SK1 (antibody, human IgG1, kappa)
heavy: QVTLKESGPVLVKPTETLTLTCTVSGIDLSHDDISWVRQAPGKGLEWVGIISYAGSTYYASWAKGRLTISKDTSKNQVVLTMTNMDPVDTATYYCARGVPAYSHGGDLWGQGTLVTVSSASTKGPSVFPLAPSSKSTSGGTAALGCLVKDYFPEPVTVSWNSGALTSGVHTFPAVLQSSGLYSLSSVVTVPSSSLGTQTYICNVNHKPSNTKVDKKVEPKSCDKTHTCPPCPAPELLNGPSVFLFPPKPKDTLMISRTPEVTCVVVDVSEEDPEVKFNWYVDGVEVHNAKTKPREEQYNSTYRVVSVLTVLHQDWLNGKEYKCKVSNKALPAPIEKTISKAKGQPREPQVYTLPPSREEMTKNQVSLTCLVKGFYPSDIAVEWESNGQPENNYKTTPLVLDSDGSFFLYSKLTVDKSRWQQGNVFSCSVMHEALHNHYTQKSLSLSP
light: DIVMTQSPATLSLSPGERATLSCTSSQSVYHANWLSWFQQKPGQPPKLLIYWASTLAYGVPSRFSGSGSGTDFTLTISSLQPEDAATYYCAGGYGGGRYAFGQGTKVEIKRTVAAPSVFIFPPSDEQLKSGTASVVCLLNNFYPREAKVQWKVDNALQSGNSQESVTEQDSKDSTYSLSSTLTLSKADYEKHKVYACEVTHQGLSSPVTKSFNRGEC
notes: Position 396 variant derived from MY052, expressed with M103202L889-SK1 as light chain
For the molecule B1, in assay [1], the “KD fold (SG1 = 1)” value stood at 3 fold. Besides, the Kd in assay [2] was determined as 1400 nM; in assay [3], 7 µM; in [4], 1300 nM; in [5] it was 6.7 µM; in assay [6], 620 nM; in assay [7], 0.7 µM. Also, the results for the Kd in assay [8] and in assay [9] were 1300 nM and 5 µM, respectively.

B2: M103205H795-MY178 / M103202L889-SK1 (antibody, human IgG1, kappa)
heavy: QVTLKESGPVLVKPTETLTLTCTVSGIDLSHDDISWVRQAPGKGLEWVGIISYAGSTYYASWAKGRLTISKDTSKNQVVLTMTNMDPVDTATYYCARGVPAYSHGGDLWGQGTLVTVSSASTKGPSVFPLAPSSKSTSGGTAALGCLVKDYFPEPVTVSWNSGALTSGVHTFPAVLQSSGLYSLSSVVTVPSSSLGTQTYICNVNHKPSNTKVDKKVEPKSCDKTHTCPPCPAPELLNGPSVFLFPPKPKDTLMISRTPEVTCVVVDVSEEDPEVKFNWYVDGVEVHNAKTKPREEQYNSTYRVVSVLTVLHQDWLNGKEYKCKVSNKALPAPIEKTISKAKGQPREPQVYTLPPSREEMTKNQVSLTCLVKGFYPSDIAVEWESNGQPENNYKTTPQVLDSDGSFFLYSKLTVDKSRWQQGNVFSCSVMHEALHNHYTQKSLSLSP
light: DIVMTQSPATLSLSPGERATLSCTSSQSVYHANWLSWFQQKPGQPPKLLIYWASTLAYGVPSRFSGSGSGTDFTLTISSLQPEDAATYYCAGGYGGGRYAFGQGTKVEIKRTVAAPSVFIFPPSDEQLKSGTASVVCLLNNFYPREAKVQWKVDNALQSGNSQESVTEQDSKDSTYSLSSTLTLSKADYEKHKVYACEVTHQGLSSPVTKSFNRGEC
notes: as for B1
Take B2: the “KD fold (SG1 = 1)” value in assay [1] turned out to be 1.9 fold. For the same molecule, the Kd is 2100 nM in assay [2]; 13 µM in [3]; 2300 nM in assay [4]; 4.5 µM in assay [5]; 950 nM in assay [6]; 1.2 µM in assay [7]. The Kd is 2000 nM in assay [8] and 8.7 µM in [9].

B3: M103205H795-MY177 / M103202L889-SK1 (antibody, human IgG1, kappa)
heavy: QVTLKESGPVLVKPTETLTLTCTVSGIDLSHDDISWVRQAPGKGLEWVGIISYAGSTYYASWAKGRLTISKDTSKNQVVLTMTNMDPVDTATYYCARGVPAYSHGGDLWGQGTLVTVSSASTKGPSVFPLAPSSKSTSGGTAALGCLVKDYFPEPVTVSWNSGALTSGVHTFPAVLQSSGLYSLSSVVTVPSSSLGTQTYICNVNHKPSNTKVDKKVEPKSCDKTHTCPPCPAPELLNGPSVFLFPPKPKDTLMISRTPEVTCVVVDVSEEDPEVKFNWYVDGVEVHNAKTKPREEQYNSTYRVVSVLTVLHQDWLNGKEYKCKVSNKALPAPIEKTISKAKGQPREPQVYTLPPSREEMTKNQVSLTCLVKGFYPSDIAVEWESNGQPENNYKTTPNVLDSDGSFFLYSKLTVDKSRWQQGNVFSCSVMHEALHNHYTQKSLSLSP
light: DIVMTQSPATLSLSPGERATLSCTSSQSVYHANWLSWFQQKPGQPPKLLIYWASTLAYGVPSRFSGSGSGTDFTLTISSLQPEDAATYYCAGGYGGGRYAFGQGTKVEIKRTVAAPSVFIFPPSDEQLKSGTASVVCLLNNFYPREAKVQWKVDNALQSGNSQESVTEQDSKDSTYSLSSTLTLSKADYEKHKVYACEVTHQGLSSPVTKSFNRGEC
notes: as for B1
As for B3, in [1], the “KD fold (SG1 = 1)” value turned out to be 2.2 fold. In addition, the Kd stood at 1800 nM in [2]; 11 µM in assay [3]; 2800 nM in [4]; 6.2 µM in [5]; 830 nM in assay [6]; 10 µM in [7]. The results for the Kd in [8] and in [9] were 1900 nM and 8.1 µM, respectively.

B4: M103205H795-MY179 / M103202L889-SK1 (antibody, human IgG1, kappa)
heavy: QVTLKESGPVLVKPTETLTLTCTVSGIDLSHDDISWVRQAPGKGLEWVGIISYAGSTYYASWAKGRLTISKDTSKNQVVLTMTNMDPVDTATYYCARGVPAYSHGGDLWGQGTLVTVSSASTKGPSVFPLAPSSKSTSGGTAALGCLVKDYFPEPVTVSWNSGALTSGVHTFPAVLQSSGLYSLSSVVTVPSSSLGTQTYICNVNHKPSNTKVDKKVEPKSCDKTHTCPPCPAPELLNGPSVFLFPPKPKDTLMISRTPEVTCVVVDVSEEDPEVKFNWYVDGVEVHNAKTKPREEQYNSTYRVVSVLTVLHQDWLNGKEYKCKVSNKALPAPIEKTISKAKGQPREPQVYTLPPSREEMTKNQVSLTCLVKGFYPSDIAVEWESNGQPENNYKTTPRVLDSDGSFFLYSKLTVDKSRWQQGNVFSCSVMHEALHNHYTQKSLSLSP
light: DIVMTQSPATLSLSPGERATLSCTSSQSVYHANWLSWFQQKPGQPPKLLIYWASTLAYGVPSRFSGSGSGTDFTLTISSLQPEDAATYYCAGGYGGGRYAFGQGTKVEIKRTVAAPSVFIFPPSDEQLKSGTASVVCLLNNFYPREAKVQWKVDNALQSGNSQESVTEQDSKDSTYSLSSTLTLSKADYEKHKVYACEVTHQGLSSPVTKSFNRGEC
notes: as for B1
Consider B4, for which the “KD fold (SG1 = 1)” value in assay [1] worked out at 1.8 fold. The Kd was found to be 2000 nM in assay [2]; 12 µM in [3]; 2100 nM in assay [4]; 5.9 µM in assay [5]; 980 nM in assay [6]; 11 µM in [7]. In addition, the results for the dissociation constant (Kd) in [8] and in assay [9] were 1900 nM and 7.9 µM, respectively.

Usually Kd stands for the constant that tells how readily two partners part at equilibrium.
